Data from patent US9096650B2, “Cyclic oligopeptides for binding to a target ligand” (LEXCICON LIMITED, priority 2006, dated 2015).
Values belong to the substance of their own block, whether it stands above or below them. Bridges are numbered along the chain shown (N, C = ends). [ ]: non-standard residue; d: D form.

Experiments:
[1] = system: J774-1 cells (a macrophage cell line); test: Suppression of TNF secretion stimulated by LPS in a macrophage cell line, varying epitope order and stereochemistry of associating amino acids (Example 3); type: cell-based; conditions: peptide 50 ug/ml; LPS 1.25 ug/ml; LPS alone 1861.9
Procedure: • 1. Cyclic octapeptides were prepared with the following structures: cyclo(-DF-S-ΣL-R-DF-S-ΣL-R-) cyclo(-DF-S-ΣL-R-DF-S-ΣD-R-) cyclo(-DF-S-ΣD-R-DF-S-ΣD-R-) cyclo(-DF-R-ΣL-S-DF-R-ΣL-S-) cyclo(-DF-R-ΣL-S-DF-R-ΣD-S-) cyclo(-DF-R-ΣD-S-DF-R-ΣD-S-) wherein F, S and R are the epitope-forming amino acids, ΣL represents an associating amino acid which is an L-alpha aminocarboxylic acid in which the associating functional group is a side-chain residue consisting of an unbranched —C10H21; ΣD represents an associating amino acid which is a D-alpha aminocarboxylic acid in which the associating functional group is a side-chain residue consisting an unbranched —C10H21. These cyclic oligopeptides were prepared as solutions in distilled water at a concentration of 1 mg/ml. • 2. J774-1 cells (a macrophage cell line) were plated out in all the wells of a 24-well cluster plates at a seeding density of 3×10^5 cells/ml/well (1 ml RPMI 1640 culture medium per well), and incubated overnight at 37° C. in 5% CO2/air. • 3. The following day, the solutions from step 1 were administered to eighteen wells containing cells in step 2, to give three wells each with a final concentration of 50 ug/ml. The remaining wells were left untreated. The plate was incubated for a further four hours at 37 degC. • 4. Lipopolysaccharide (from E. coli strain 0111 B4) was added to the wells receiving the octapeptide solutions, as well as three of the wells receiving no peptide. The concentration of lipopolysaccharide was 1.25 ug/ml. • 5. The plate was incubated overnight, and the following day the supernatants were assayed for TNF using a commercial ELISA kit.

[2] = target: thrombin (Homo sapiens, UniProt P00734); test: Inhibition of enzyme activity of thrombin, fluorogenic substrate (Example 7); type: biochemical
Procedure: 1. Cyclic oligopeptides of the following structures were synthesised as previously described, and prepared in complexed form with cyclodextrin at concentration of 1 mg/ml on Hanks Balanced Salts Solution using the procedure outlined in example 6. (i) cyclo(-R-E-Σ-S-R-E-R-Σ-S-E-) (ii) cyclo(-A-K-ΣE-Y-K-A-ΣY-E-) (iii) cyclo(-dF-R-C-S-dF-R-C-S-) (iv) cyclo(-dF-S-C-R-dF-S-C-R-)
2. In wells of a […] microplate, 20 ul of thrombin solution (0.01 mg/ml) were dispensed, and mixed with 60 ul of cyclic oligopeptide solution
3. 20 ul of the substrate boc-beta-benzyl-Asp-Pro-Arg-7-amido-4-methylcoumarin hydrochloride (0.01 mg/ml) was added to each well, and the time course of generation of […] was measured.

Substance: cyclo(-DF-R-ΣD-S-DF-R-ΣD-S-)
Concentration of TNF [1]: 1573.3 pg/mL

Substance: cyclo(-DF-R-ΣL-S-DF-R-ΣD-S-)
Concentration of TNF [1]: 1625.2 pg/mL

Substance: cyclo(-DF-R-ΣL-S-DF-R-ΣL-S-)
Concentration of TNF [1]: 1990.4 pg/mL

Substance: cyclo(-DF-S-ΣD-R-DF-S-ΣD-R-)
Concentration of TNF [1]: 1438.0 pg/mL

Substance: cyclo(-DF-S-ΣL-R-DF-S-ΣD-R-)
Concentration of TNF [1]: 987.1 pg/mL

Thrombin proteolytic activity (Fluorescence Units - Arbitrary Units) ([2]; time 2.0 minutes, enzyme alone 770.9, lower = more inhibition): 634.5 Arbitrary Units
Thrombin proteolytic activity (Fluorescence Units - Arbitrary Units) ([2]; time 5.0 minutes, enzyme alone 1821.1): 1368.8 Arbitrary Units
Thrombin proteolytic activity (Fluorescence Units - Arbitrary Units) ([2]; time 10.0 minutes, enzyme alone 2163.5): 1786.9 Arbitrary Units
Thrombin proteolytic activity (Fluorescence Units - Arbitrary Units) ([2]; time 15.0 minutes, enzyme alone 2253.2): 1980.7 Arbitrary Units
Thrombin proteolytic activity (Fluorescence Units - Arbitrary Units) ([2]; time 20.0 minutes, enzyme alone 2345.8): 2107.4 Arbitrary Units
Thrombin proteolytic activity (Fluorescence Units - Arbitrary Units) ([2]; time 25.0 minutes, enzyme alone 2359.0): 2159.7 Arbitrary Units
Substance: cyclo(-dF-R-C-S-dF-R-C-S-) (cyclo([dF]RCS[dF]RCS); disulfide 3-7; SMILES N=C(N)NCCC[C@@H]1NC(=O)[C@@H](Cc2ccccc2)NC(=O)[C@H](CO)NC(=O)[C@@H]2CSSC[C@H](NC1=O)C(=O)N[C@@H](CO)C(=O)N[C@H](Cc1ccccc1)C(=O)N[C@@H](CCCNC(=N)N)C(=O)N2) [Example 7 (iii), cysteines in the ring are oxidised to form an internal bridge]
